Assay results published in patent EP4703388A1 (Jiangsu Hengrui Pharmaceuticals Co., Ltd., dated 2024).

T1: cyno TF ECD-His (cTF-his) (monkey (cyno))
T1 construct: also called bio-cTF-his; monkey TF-His protein
T1 chain: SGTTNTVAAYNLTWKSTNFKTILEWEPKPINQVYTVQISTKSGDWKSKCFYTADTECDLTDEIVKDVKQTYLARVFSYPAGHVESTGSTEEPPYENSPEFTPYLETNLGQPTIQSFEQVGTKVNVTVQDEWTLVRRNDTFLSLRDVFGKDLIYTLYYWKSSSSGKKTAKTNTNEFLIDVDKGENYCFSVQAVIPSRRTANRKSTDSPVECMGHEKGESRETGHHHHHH

T2: HuRatTF, human-rat hybrid TF antigen (human-rat hybrid)
T2 construct: also called HuRatTF protein; human-rat hybrid TF protein
T2 chain: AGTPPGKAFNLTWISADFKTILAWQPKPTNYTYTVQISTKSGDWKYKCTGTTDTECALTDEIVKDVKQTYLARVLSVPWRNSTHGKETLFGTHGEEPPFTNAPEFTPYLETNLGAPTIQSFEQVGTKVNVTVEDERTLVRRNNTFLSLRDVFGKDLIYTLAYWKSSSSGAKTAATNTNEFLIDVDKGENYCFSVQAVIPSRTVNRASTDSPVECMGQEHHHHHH

T3: mouse TF ECD-His (mouse, UniProt P20352 29-251)
T3 construct: also called Mouse TF-His protein; mouse TF antigen protein
T3 sequence: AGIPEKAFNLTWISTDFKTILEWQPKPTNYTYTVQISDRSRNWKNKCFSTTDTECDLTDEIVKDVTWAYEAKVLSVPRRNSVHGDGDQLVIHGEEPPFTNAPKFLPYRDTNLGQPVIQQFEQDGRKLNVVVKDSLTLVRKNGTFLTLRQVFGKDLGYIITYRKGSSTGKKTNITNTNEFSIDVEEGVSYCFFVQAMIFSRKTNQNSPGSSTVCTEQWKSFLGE

T4: rat TF ECD-His (rat, UniProt P42533 29-252)
T4 construct: also called rat TF-His protein; rat TF antigen protein
T4 sequence: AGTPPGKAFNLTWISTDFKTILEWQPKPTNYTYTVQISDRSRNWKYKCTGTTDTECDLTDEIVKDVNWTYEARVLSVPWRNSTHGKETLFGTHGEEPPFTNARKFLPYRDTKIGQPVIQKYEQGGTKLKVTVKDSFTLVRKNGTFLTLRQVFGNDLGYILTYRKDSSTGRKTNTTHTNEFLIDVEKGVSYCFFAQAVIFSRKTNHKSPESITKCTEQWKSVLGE


Tests used:
[1] = biological target: T5, human tissue factor (TF) on MDA-MB-231, NCI-H358 and HCT116 cells (human, UniProt P13726 33-295); test: flow cytometry on H358 cells
T5 construct: whole, on cells; also called TF antigen; CD142

[2] = biological target: T5, human tissue factor (TF) on MDA-MB-231, …; test: flow cytometry on MDA-MB-231 cells
[3] = biological target: T6, human TF ECD-His (hTF-his) (human, UniProt P13726 33-251); test: SPR Biacore T200, antibody on Protein A chip, TF-His as analyte, 1:1 model
T6 construct: also called bio-hTF-his; human TF-His protein

[4] = biological target: T1, cyno TF ECD-His (cTF-his); test: as above
[5] = biological target: T5, human tissue factor (TF) on MDA-MB-231, …; test: cell-based or functional assay
[6] = biological target: T5, human tissue factor (TF) on MDA-MB-231, …; test: cell-based or functional assay; remark: listed apart in the source
[7] = biological target: T5, human tissue factor (TF) on MDA-MB-231, …; test: flow cytometry on HCT116 cells
[8] = biological target: T2, HuRatTF, human-rat hybrid TF antigen; test: ELISA, HuRatTF coated, antibody titrated
mouse TF ECD-His = biological target: T3, mouse TF ECD-His; test: ELISA, TF-His coated at 4 µg/mL, antibody titrated
rat TF ECD-His = biological target: T4, rat TF ECD-His; test: ELISA, TF-His coated at 4 µg/mL, antibody titrated
[9] = biological target: T6, human TF ECD-His (hTF-his); test: ELISA, antibody captured by anti-human IgG, biotinylated TF-his titrated
[10] = biological target: T1, cyno TF ECD-His (cTF-his); test: as above

EC50 [1] [nM] | EC50 [2] [nM] | Kd [3] [nM] | koff [3] [s⁻¹] | kon [3] [M⁻¹ s⁻¹] | Kd [4] [nM] | koff [4] [s⁻¹] | kon [4] [M⁻¹ s⁻¹] | Inhibition rate (%), Factor-VII-Human Chromogenic-Activity blood coagulation pathway assay (FVIIa, MDA-MB-231 cells, FX; antibody 20 µg/mL) [5] [%] | EC50 (nM), IL8 assay (IL-8 of MDA-MB-231 cells after antibody and FVIIa) [6] [nM] | EC50 [7] [nM] | EC50 [8] [nM] | Maximum (OD450 nm) [8] [OD450 nm] | binding result (mouse TF ECD-His) | binding result (rat TF ECD-His) | EC50 [9] [µg/mL] | Emax [9] | EC50 [10] [µg/mL] | Emax [10] | Binder
0.67 | 1.32 | 18.5 | 0.00699 | 378000 | 19.2 | 0.00637 | 332000 | -2.8 | 0.407 | 0.34 | 2.13 | 0.428 | no binding | no binding | 0.0529 | 0.92 | 0.041 | 0.92 | hu310-2 (antibody, human IgG1, kappa, V domains shown) VH: EVQLVQSGAEVKKPGASVKVSCKASGYSFTGYYMNWVRQAPGQGLEWMGEINPSTGGSTYNQKFKARVTMTVDQSTSTVYMELSSLRSEDTAVYYCARRELGGPFGYWGQGTTVTVSS VL: SIVMTQSPDSLAVSLGERATINCKASQSVSNGIAWYQQKPGQSPKLLIYFASNRYTGVPDRFSGSGYGTDFTLTISSLQAEDVAVYYCQQDYSSPWTFGGGTKVEIKR
0.68 | 1.64 | 0.749 | 0.00011 | 146000 | 0.677 | 0.000114 | 169000 | -1.8 | 0.412 | 0.47 | 2 | 1.39 | no binding | no binding | 0.0035 | 1 | 0.0027 | 1.13 | hu10H10-77 (antibody, V domains shown, H11+L9; Full-length IgG) VH: EVQLVQSGSELKKPGASVKVSCKASGYTFITYWIEWVKQRPGQGLEWMGDILPYSGSTNYNENFKGRATFSADTSVSTAYLQISSLKAEDTAVYYCARSGYYGNSGFAYWGQGTLVTVSS VL: DIQMTQSPSSLSASVGDRVTITCQSSQSLLSSGNQKNYLTWYQQKPGKAPKLLIYWASTRESGVPSRFSGSGSGTDFTLTISSLQPEDFATYYCQNDYTYPLTFGQGTKLEIK
5.42 | 4.91 | 39.4 | 0.00263 | 66700 | 27.1 | 0.000947 | 35000 | 4 | 1.57 | 1.66 | 53.4 | 0.292 | no binding | no binding | 0.103 | 0.89 | 0.0691 | 1.17 | hu67Y116 (antibody, human IgG1, kappa, V domains shown) VH: EVQLQESGPGLVKPSQTLSLTCTVSGFSLTNYGVNWIRQSPGKGLEWIGVIWSRGNTDYNAAFKSRVTISKDTSKNQVSLKLSSVTAADTAVYYCARKDAIVATDALDYWGQGTTVTVSS VL: DIQMTQSPSSLSASVGDRVTITCKASQDVQTAVAWYQQKPGKAPKLLIYSTHYRYTGVPSRFSGSGSGTDFTFTISSLQPEDIATYYCLQSYTLPFSFGGGTKVEIKR

The next lines start with the binder.

Binder | EC50 [1] [nM] | EC50 [2] [nM] | Kd [3] [nM] | koff [3] [s⁻¹] | kon [3] [M⁻¹ s⁻¹] | Kd [4] [nM] | koff [4] [s⁻¹] | kon [4] [M⁻¹ s⁻¹] | Inhibition rate (%), Factor-VII-Human Chromogenic-Activity blood coagulation pathway assay (FVIIa, MDA-MB-231 cells, FX; antibody 20 µg/mL) [5] [%] | EC50 (nM), IL8 assay (IL-8 of MDA-MB-231 cells after antibody and FVIIa) [6] [nM] | EC50 [7] [nM] | EC50 [8] [nM] | Maximum (OD450 nm) [8] [OD450 nm] | binding result (mouse TF ECD-His) | binding result (rat TF ECD-His) | EC50 [9] [µg/mL] | Emax [9] | EC50 [10] [µg/mL] | Emax [10]
hu67-14 (antibody, human IgG1, kappa, V domains shown) VH: EVTLKQSGPVLVKPTQTLTLTCTVSGFSLTNYGVNWIRQPPRKGLEWLGVIWSRGNTDYNAAFISRLTISKDNSKSQVVLKMTNMDPVDTATYYCARKDAVVATDALDYWGQGTTVTVSS VL: DIQMTQSHKFLSASVGDRVTITCKASQDVSTAVAWYQQKPGKSPKLLIYSTSYRYTGVPSRFSGSGSGTDFTFTISSLQPEDIATYYCQQHYSTPYTFGGGTKVEIKR | 107 | 18.9 | 20.1 | 0.000624 | 31000 | 12.9 | 0.000399 | 31000 | – | – | – | – | – | – | – | – | – | – | –
chimeric antibody CH67 (antibody, human IgG1, kappa, V domains shown, Murine 67# variable regions + human constant regions) VH: QVQLKQSGPGLVQPSQSLSITCIVSGFSLTNYGVNWVRQSPRKGLEWLGVIWSRGNTDYNAAFISRLIISKDNSKSQVFLKMNRLQADDTAIYYCARKDAVVATDALDYWGQGTSVTVSS VL: DIVMTQSHKFMSTSLGDRVSITCKASQDVSTAVAWYQQKPGQSPKLLIYSTSYRYTGVPDRFTGSGSGTDFTFTISSVQAEDLAVYYCQQHYSTPYTFGGGTKLEIKR | 55.9 | 16.5 | 36.7 | 0.000969 | 26400 | 16 | 0.000473 | 29500 | – | – | – | – | – | – | – | – | – | – | –
hu67-4 (antibody, human IgG1, kappa, V domains shown) VH: EVQLQESGPGLVKPSQTLSLTCTVSGFSLTNYGVNWIRQPPRKGLEWIGVIWSRGNTDYNAAFISRVTISKDNSKSQVSLKLSSVTAADTAVYYCARKDAVVATDALDYWGQGTTVTVSS VL: DIVMTQSPKSLAVSLGERATINCKASQDVSTAVAWYQQKPGQPPKLLIYSTSYRYTGVPDRFSGSGSGTDFTLTISSLQAEDVAVYYCQQHYSTPYTFGGGTKVEIKR | 90.5 | 18 | 18.9 | 0.000766 | 40500 | 15.5 | 0.000523 | 33700 | – | – | – | – | – | – | – | – | – | – | –
